Assay results: PMC9482650, “Quantitative fragmentomics allow affinity mapping of interactomes” (Nature Communications, 2022)

How the values were obtained:
Assay in all cases: holdup assay
Design in all cases: key: below the threshold = too weak to quantify, mostly under pKd 3.1 to 4
Settings in all cases: plain residues with an end cap or a label only (N-terminal biotin on a linker: ado-ado)
FRMPD1, Q5SYB0 = target: T1, FRMPD1, Q5SYB0
T1 sequence (Q5SYB0 52-145, limits assumed, looked up): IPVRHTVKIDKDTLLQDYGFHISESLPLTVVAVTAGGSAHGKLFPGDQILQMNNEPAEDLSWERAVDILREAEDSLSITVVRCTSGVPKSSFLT

IL16_4, Q14005 = target: IL16_4, Q14005
Chain of IL16_4, Q14005 (Q14005 1229-1329): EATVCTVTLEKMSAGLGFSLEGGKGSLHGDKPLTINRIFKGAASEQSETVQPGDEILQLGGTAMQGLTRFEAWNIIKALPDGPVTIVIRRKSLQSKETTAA

PCLO, Q9Y6V0 = target: T2, PCLO, Q9Y6V0
T2 sequence (Q9Y6V0 4491-4600, limits assumed, looked up): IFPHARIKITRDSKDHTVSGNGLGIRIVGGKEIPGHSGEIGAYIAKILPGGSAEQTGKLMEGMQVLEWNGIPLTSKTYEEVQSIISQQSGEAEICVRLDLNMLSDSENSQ

Measured: pKd

ATKDKKITTV [EXOC4, Q96A65]
below the threshold: all assays above

PSVYSRSQYV [CLDN8, P56748]
below the threshold: all assays above

SRPHTNETSL [MCC, P23508]
below the threshold: all assays above

GDSSRKEYFI [GYPC, P04921]
below the threshold: all assays above

FHSIKQSTAV [CRHR1, P34998]
below the threshold: all assays above

GSQSQVETEA [FKBP4, Q02790]
below the threshold: all assays above
